± gives the half width of the 95% confidence interval.
Assays:
[1] = folding stability dG unfold from chymotrypsin proteolysis; higher = more stable
Procedure, shortened: (§1)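 Sequencing followed digestion of designed mini-proteins with trypsin and chymotrypsin, each at 11 concentrations in threefold dilutions together with a no-protease condition. The mini-proteins were under 80 residues, had no cysteine, sat in a PA-tagged cDNA display construct, and were kept only if AlphaFold2 dimer inter-PAE was above 15. From the counts, Bayesian fitting gave K50, and unfolding free energy was derived against a sequence-predicted unfolded-state K50 and a shared folded-state K50, per protease or combined.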

[2] = folding stability dG unfold from trypsin proteolysis; higher = more stable
Procedure, shortened: as §1

[3] = folding stability dG unfold (combined trypsin and chymotrypsin); higher = more stable
Procedure, shortened: as §1

Sequence | folding stability dG unfold [1] [kcal/mol] | folding stability dG unfold [2] [kcal/mol] | folding stability dG unfold [3] [kcal/mol]
SAGGMPEEELTLIVRIKVYNPETGEEKEITLTITVKSEEELEKAKKLVEELEEKLKELGIKKVEIEILSAGG [r13_360_TrROS_Hall] | 3.37 ± 0.097 | 2.92 ± 0.25 | 3.2 ± 0.26
SAGSITIDGLTPDKEQEVKITVTLPLPGGGTVTLELTAKVTYDPATGLAKMPITLPDGTVLPLTLPLPESAG [r5_743_JUSTAS] | 1.93 ± 0.074 | 2.21 ± 0.12 | 2.1 ± 0.093
SAGGSAGGSAGGMKTIEITNADGSKATAELLPDGWVKIYFEETGEEKTLPAKDLTITPPSAGGSAGGSAGGS [r10_289_TrROS_Hall] | 0.5 ± 0.013 | 0.423 ± 0.038 | 0.466 ± 0.05
SAGGSAGGSAGKLKIKSVITFESEDDLIVKLIEVDDKVFAIVLDPKTGKPVKIIPDNEIFSAGGSAGGSAGG [r11_851_TrMRF] | 1.2 ± 0.13 | 0.0652 ± 0.13 | 0.873 ± 0.18
SAGGSANWRPIEIELMIGIKSKEQAKEWAEEIADNFPGIKDVEVEEFPDPDGHVMVAVDVKFYVPESAGGSA [r15_726_TrROS] | 0.999 ± 0.031 | 0.755 ± 0.057 | 0.969 ± 0.075
SAGGKLAELKEILKKLGLPKIESIEEDPETGVLRFKASSSKPILVTVPVRSLGDGSRPIEVEIKSTNISAGG [r13_410_JUSTAS] | 0.448 ± 0.32 | 0.227 ± 0.24 | 0.342 ± 0.18
SMKIEKKDGKYVLTIKIKADSVEEVLNALKKLGIKFPPGVKEIKVVKVEEVNGEVYITIVVDTEEALKALSA [r9_820_TrROS_Hall] | 2.34 ± 0.09 | 2.93 ± 0.13 | 2.6 ± 0.28
SAGGSAGGSADGPPTFRVRIKWKNGKKMKFEIDPNDSLEQVADPLSKLPGIDDIKDLEIYPSAGGSAGGSAG [r3_308_TrROS] | 1.05 ± 0.44 | 0.725 ± 0.13 | 0.764 ± 0.18
SAGGSAGILEKTIKLAEELGLPVVEAKVVKKKNKVYVFFKSKKSKKYVIEIDGDKITIKPYSVVKKSAGGSA [r15_901_TrMRF] | 2.99 ± 0.05 | 1.954 ± 0.014 | 2.68 ± 0.059
SAGMKIEEKDGYLVITFKTKEEAEEAAKKLKELFPDAEIVEIKVEKDENGNETVTIVIKLKNLSPEALKSAG [r5_857_TrROS_Hall] | 2.04 ± 0.12 | 1.53 ± 0.077 | 1.85 ± 0.23
SAGAMKITMPEDISVSPSGGATVTITVEFPDKDAVYTVPVTFPDVKSVEEVLARAEEVGKEFAEELKKKSAG [r5_940_JUSTAS] | 0.872 ± 0.063 | 0.484 ± 0.046 | 0.73 ± 0.099
SAGGSAGGSAPPVVRVTVPLPDGSVLEVEYFPDTGLVRVTLVDADGTPTTVTLPAAEVLALFSAGGSAGGSA [r18_219_TrMRF] | 3.026 ± 0.019 | 2.04 ± 0.042 | 2.73 ± 0.045
SAGGMKLTPEAKKLAEELKKEGKKVKIEKKDGYYVLTVDGKVYKSKEDMEKAAKDPNVKKVIVIKLPSAGGS [r16_275_TrROS_Hall] | 1.95 ± 0.18 | 0.519 ± 0.13 | 1.46 ± 0.18
SAGGSAGGSPLPPEVYKIRLKVDGKWYEALARVKPDGTVEVFLKDTGKTFTVPLKDLEIEKLDSAGGSAGGS [r12_782_TrROS_Hall] | 3.51 ± 0.064 | 3.25 ± 0.19 | 3.35 ± 0.14
SAGGSAGGMIIQEVEEFKDKSEEEVKKKMLEELKKKYPKSYKVKITVTKNPSGKYTVTVTITPNSAGGSAGG [r6_964_JUSTAS] | 2.65 ± 0.059 | 2.19 ± 0.047 | 2.51 ± 0.071
SAGGSAGGMMYVVKITNEDGETLTIEAESEEEALEAARALAEETGREITRIEVRRLSKEEEEEESAGGSAGG [r6_162_TrROS_Hall] | 2.787 ± 0.021 | 2.28 ± 0.06 | 2.64 ± 0.064
SAGGSAGGSKPPPTVEIEITLEDGTVLRIRVTPDRIEIENLETGKRFTFPPGATIEIEVRKLPSAGGSAGGS [r12_227_TrROS_Hall] | 3.73 ± 0.49 | 3.95 ± 0.82 | 4.19 ± 0.56
SSSMPVTVEIEAKKLSNGKYLAKITVKDANGNELEEYEKEMDESEVEKLKEELKKKYPNMKVTMTYKDELSA [r9_374_JUSTAS] | 4.17 ± 0.14 | 3.3 ± 0.34 | 4.17 ± 0.45
SAGGSAGGSAGMELTLDEIRALLPAEEIEEVEVVEVDGKLVIRVKRKDGKEVRELVIEKDSAGGSAGGSAGG [r17_374_TrROS_Hall] | 1.67 ± 0.054 | 1.63 ± 0.065 | 1.73 ± 0.13
SAGGMKKPIKAKIKIVKFEDGYLILIELPDGKIIAFKSPEELKAALEKFPEIEITEIEIIPPEEFLKKSAGG [r13_730_TrMRF] | 3.47 ± 0.19 | 1.63 ± 0.067 | 3.07 ± 0.22
SAGPKAEIINKNGKKISFSAKNIKITSYPEKGILTGIIPKKNKKIEIKVDNNKITLIVYDGGKYKEFPISAG [r5_786_TrMRF] | 3.97 ± 0.22 | 2.07 ± 0.071 | 2.21 ± 0.55

Sequence | folding stability dG unfold [1] [kcal/mol] | folding stability dG unfold [2] [kcal/mol] | folding stability dG unfold [3] [kcal/mol]
SAGGSAENKTIKITFTFKNAKNAIFTINVEKGNKTYKITFNLSDNQELNIEVDYNNTKVSFSIYPASAGGSA [r15_414_TrMRF] | 5.35 ± 0.21 | 3.94 ± 0.48 | 4.74 ± 0.43
SAGGSAGGSAGGITLEEILKLIKDQPPGETRMIRLPGNGYTIQIYYEDNQLEIDIEPVKDSAGGSAGGSAGG [r7_448_TrROS] | 1.57 ± 0.032 | 1.06 ± 0.029 | 1.41 ± 0.078
SAGGIKEAFEAGVEVKDVEVPVLFPDGSEAEVVEVDPVDDGVRVVLRNPVTGELFEREIPPELIEPRPSAGG [r13_340_TrMRF] | 0.172 ± 0.053 | 0.653 ± 0.019 | 0.484 ± 0.07
SAGGSAGGSAGRVEKIVSNLKPLGYEVLSVEETEDYVLAVVYDPFTDEPRVFRFPKDSPFSAGGSAGGSAGG [r11_428_TrMRF] | 1.18 ± 0.13 | 1.27 ± 0.017 | 1.41 ± 0.11
SAGGSAGGSAGGSPSPLGKTRPALPASPVLKVPVTLPDDSLLTVYYDPLTGSLVVESYSSAGGSAGGSAGGS [r4_305_TrMRF] | 0.414 ± 0.12 | 0.326 ± 0.026 | 0.467 ± 0.07
SMEDMSVEELLELLREKLREAREKGKSLEDIKITIVIVAETEEEKEAIAKALKEEFPEIKEIKIEVLPPESA [r9_341_TrROS_Hall] | 2.64 ± 0.15 | 3.06 ± 0.14 | 2.92 ± 0.26
SAGGPNIRIDINLMPHPGKPYIMVRIEIPNGYKREIMFNPDDGKISIEIRYPGKEEKIEFPLDDIKPISAGG [r13_328_TrROS] | 4.7 ± 0.3 | 3.48 ± 0.5 | 4.42 ± 0.32
SAGGSAGGKEIKVIELPEEKVTIEVTITLEDGTVIKVTAVIDAETGEIVEITSVEIVPLPAEEKSAGGSAGG [r6_927_TrROS_Hall] | 1.88 ± 0.2 | -0.122 ± 0.11 | 1.36 ± 0.21
SAGGSAGGTITVTPLPDGRELITYPEKNALVEIVKDPATGKETVIVYEDGEPKVISLEELKKKLSAGGSAGG [r6_534_JUSTAS] | 0.383 ± 0.021 | 0.359 ± 0.059 | 0.417 ± 0.079
SAGLVVTKLPGDGTLRITLPPPGAPLVLTIPLDPGNGTLSVTVTRPDGRSETYTFPGGSIDEVIERLLSAGG [r19_159_JUSTAS] | 2.902 ± 0.021 | 2.37 ± 0.074 | 2.72 ± 0.093
SAGGSAGKITIPARVKITLTPPNGPTVTFDAIITRVEDNSIELILGNVPITIPPNAKNVTITSVEGSAGGSA [r15_510_TrMRF] | 1.53 ± 0.022 | 1.45 ± 0.018 | 1.49 ± 0.052
SAGMVITLERTIPPTVSVSPEEAVAAIKAELEATPGVTVTAVNSVTVTPLPDGTLRVTVDIVVDRPEPSAGG [r19_396_JUSTAS] | 2.634 ± 0.024 | 2.23 ± 0.037 | 2.53 ± 0.06
SAGGSAGGENNIEVYYVEVKVPDPSIPLSVVLEKLPLPPEFLTVTPVEVKPPDGTVLIAIYRDSSAGGSAGG [r6_955_TrMRF] | -0.0815 ± 0.14 | 0.516 ± 0.02 | 0.409 ± 0.089
SAGGGKPVNILIKKPNEIKIIPIPVVKIEPLESPDKLYIIFEDGYIMEFDPKTLELLSIEKVKPIEEASAGG [r13_636_TrMRF] | 1.94 ± 0.066 | 1.35 ± 0.11 | 1.69 ± 0.3
SAGGSAGGSKKPKFKVKKVEVVEENGKLRIRIVLEDGKKIEIEIKGLSKEEIEKKAKELLKKLSAGGSAGGS [r20_181_TrROS_Hall] | 3.93 ± 0.2 | 3.57 ± 0.33 | 3.66 ± 0.22
SAGGKIEIHPDTLVVRIEVENKDGSTEEITLELKGLTEEELEDLLKELAAQLPDPDVKVKIVEIRRLPSAGG [r13_29_TrROS_Hall] | 2.49 ± 0.12 | 2.63 ± 0.13 | 2.43 ± 0.13
SAGGKTTVLIITENPDGTPKAIPIPLDELDIEEIVELIKELVEEGRKLKVFVPADTPPELIKAIKEAASAGG [r13_251_TrMRF] | 3.2 ± 0.067 | 3.4 ± 0.087 | 3.31 ± 0.056
SAGGSAGGSAGGAPPGAKFTVKVPSNDNVIPGSVTLGPDGGTVFHFDGPVPEGDYEIVLESAGGSAGGSAGG [r7_627_JUSTAS] | -0.362 ± 0.17 | -1.63 ± 0.33 | -0.643 ± 0.15
SAGGMVLKPVKLNGNENLKTTADGAEVEYTSDGKGNVTITVRYEPNLTVEALVNGSTVTLVKTEEGYLSAGG [r13_92_JUSTAS] | 0.937 ± 0.11 | 0.843 ± 0.09 | 0.867 ± 0.15
SAGGPVNKKELVTVPVYYDPETGKFVVKATYPTRPITVPTDETDPVEALARFGTLLEKVTGKPIDTFVGSAG [r5_251_TrMRF] | 0.414 ± 0.098 | -0.0487 ± 0.083 | 0.288 ± 0.04
SAFKIDPNGHIRIMISQDDLKQMSIEEINNLVKELAKAFPPPMKVEIHIMPPPPKPKPPPKRDDDGKPKSAG [r14_312_TrROS] | 0.66 ± 0.13 | 1.54 ± 0.053 | 1.1 ± 0.18
